This note sets out measurements from the supplement of paper PMC11246515.

± gives the standard deviation of the averaged measurements.

The nature of this series: total protein half-life in vivo (active degradation + dilution); higher = more stable protein.
Setting [1] is: E. coli NCM3722 delta-clpP delta-lon delta-hslV, growth: N-lim chemostat, doubling time 6 h.
Setting [2] is: E. coli NCM3722 delta-clpP, growth: N-lim chemostat, doubling time 6 h.
The mark [3] stands for this setting: E. coli NCM3722 delta-hslV, growth: N-lim chemostat, doubling time 6 h.
Setting [4] is: wild type E. coli NCM3722, growth: C-lim chemostat, doubling time 6 h.
Where [5] appears, read: wild type E. coli NCM3722, growth: N-lim chemostat, doubling time 6 h.
Where [6] appears, read: wild type E. coli NCM3722, growth: N-lim chemostat, doubling time 12 h.
The mark [7] stands for this setting: wild type E. coli NCM3722, growth: P-lim chemostat, doubling time 6 h.
Where [8] appears, read: wild type E. coli NCM3722, growth: P-lim chemostat, doubling time 12 h.
Where [9] appears, read: E. coli NCM3722 delta-lon, growth: N-lim chemostat, doubling time 6 h.
Setting [10] is: wild type E. coli NCM3722, growth: C-lim chemostat, doubling time 3 h.
Where [11] appears, read: wild type E. coli NCM3722, growth: C-lim chemostat, doubling time 12 h.
The mark [12] stands for this setting: E. coli NCM3722 delta-smpB, growth: N-lim chemostat, doubling time 6 h.

Regarding “MLTLLHLLSAVALLVWGTHIVRTGVMRVFGARLRTVLSRSVEKKPLAFCAGIGVTALVQSSNATTMLVTSFVAQDLVALAPALVIVLGADVGTALMARILTFDLSWLSPLLIFIGVIFFLGRKQSRAGQLGRVGIGLGLILLALELIVQAVTPITQANGVQVIFASLTGDILLDALIGAMFAIISYSSLAAVLLTATLTAAGIISFPVALCLVIGANLGSGLLAMLNNSAANAAARRVALGSLLFKLVGSLIILPFVHLLAETMGKLSLPKAELVIYFHVFYNLVRCLVMLPFVDPMARFCKTIIRDEPELDTQLRPKHLDVSALDTPTLALANAARETLRIGDAMEQMMEGLNKVMHGEPRQEKELRKLADDINVLYTAIKLYLARMPKEELAEEESRRWAEIIEMSLNLEQASDIVERMGSEIADKSLAARRAFSLDGLKELDALYEQLLSNLKLAMSVFFSGDVTSARRLRRSKHRFRILNRRYSHAHVDRLHQQNVQSIETSSLHLGLLGDMQRLNSLFCSVAYSVLEQPDEDEGRDEY [P0AF43]”, the “total protein half-life in vivo” value worked out at 6.4 h under setting [1]; 6.35 ± 0.26 h under setting [2]; 5.73 ± 0.74 h under setting [3]; 5.38 ± 0.19 h under setting [4]; 6.48 h under setting [5]; 10.5 ± 4.5 h under setting [6]. Besides, the “total protein half-life in vivo” value by setting is: under setting [7], 6.1173 ± 0.0061 h; under setting [8], 11.55 ± 0.033 h.

With “MGIIAQNKISSLGMLFGAIALMMGIIHFSFGPFSAPPPTFESIVADKTAEIKRGLLAGIKGEKITTVEKKEDVDVDKILNQSGIALAIAALLCAFIGGMRKENRWGIRGALVFGGGTLAFHTLLFGIGIVCSILLIFLIFSFLTGGSLV”, the “total protein half-life in vivo” value under setting [5] was found to be 5.09 h.

As for “MEGWQRAFVLHSRPWSETSLMLDVFTEESGRVRLVAKGARSKRSTLKGALQPFTPLLLRFGGRGEVKTLRSAEAVSLALPLSGITLYSGLYINELLSRVLEYETRFSELFFDYLHCIQSLAGVTGTPEPALRRFELALLGHLGYGVNFTHCAGSGEPVDDTMTYRYREEKGFIASVVIDNKTFTGRQLKALNAREFPDADTLRAAKRFTRMALKPYLGGKPLKSRELFRQFMPKRTVKTHYE [P0A7H3]”, the “total protein half-life in vivo” value runs as follows: under setting [2], 2.812 ± 0.027 h; under setting [9], over 8 h; under setting [10], 1.98 h; under setting [11], 2.57 h; under setting [6], 2.87 h; under setting [8], 4.34 h.

As to “MKFIIKLFPEITIKSQSVRLRFIKILTGNIRNVLKHYDETLAVVRHWDNIEVRAKDENQRLAIRDALTRIPGIHHILEVEDVPFTDMHDIFEKALVQYRDQLEGKTFCVRVKRRGKHDFSSIDVERYVGGGLNQHIESARVKLTNPDVTVHLEVEDDRLLLIKGRYEGIGGFPIGTQEDVLSLISGGFDSGVSSYMLMRRGCRVHYCFFNLGGAAHEIGVRQVAHYLWNRFGSSHRVRFVAINFEPVVGEILEKIDDGQMGVILKRMMVRAASKVAERYGVQALVTGEALGQVSSQTLTNLRLIDNVSDTLILRPLISYDKEHIINLARQIGTEDFARTMPEYCGVISKSPTVKAVKSKIEAEEEKFDFSILDKVVEEANNVDIREIAQQTEQEVVEVETVNGFGPNDVILDIRSIDEQEDKPLKVEGIDVVSLPFYKLSTKFGDLDQNKTWLLWCERGVMSRLQALYLREQGFNNVKVYRP”, the “total protein half-life in vivo” value was determined as 4.16 ± 1 h under setting [1]; 2.72 ± 0.25 h under setting [2]; 2.86 ± 0.2 h under setting [3]; 3.57 ± 0.082 h under setting [9]; 2.827 ± 0.0041 h under setting [12]; 3 ± 0.2 h under setting [10]. Further, the “total protein half-life in vivo” value worked out at 4.62 ± 0.53 h under setting [4]; 7.48 ± 0.32 h under setting [11]; 2.952 ± 0.021 h under setting [5]; 3.99 ± 0.086 h under setting [6]; 5.66 ± 1.4 h under setting [7]; 8.76 ± 0.25 h under setting [8].

“MTESTSRRPAYARLLDRAVRILAVRDHSEQELRRKLAAPIMGKNGPEEIDATAEDYERVIAWCHEHGYLDDSRFVARFIASRSRKGYGPARIRQELNQKGISREATEKAMRECDIDWCALARDQATRKYGEPLPTVFSEKVKIQRFLLYRGYLMEDIQEIWRNFAD”: the “total protein half-life in vivo” value is, setting by setting: under setting [1], 5.54 ± 0.24 h; under setting [2], 3.94 h; under setting [4], 4.03 h; under setting [6], 5.32 h; under setting [7], 7.34 h; under setting [8], 8.52 h.

For “MSESAFKDCFLTDVSADTRLFHFLARDYIVQEGQQPSWLFYLTRGRARLYATLANGRVSLIDFFAAPCFIGEIELIDKDHEPRAVQAIEECWCLALPMKHYRPLLLNDTLFLRKLCVTLSHKNYRNIVSLTQNQSFPLVNRLAAFILLSQEGDLYHEKHTQAAEYLGVSYRHLLYVLAQFIHDGLLIKSKKGYLIKNRKQLSGLALEMDPENKFSGMMQ [P0A9E9]”, the “total protein half-life in vivo” value was found to be 1.56 h under setting [10] and 2.53 h under setting [11].

On to “MQVSVETTQGLGRRVTITIAADSIETAVKSELVNVAKKVRIDGFRKGKVPMNIVAQRYGASVRQDVLGDLMSRNFIDAIIKEKINPAGAPTYVPGEYKLGEDFTYSVEFEVYPEVELQGLEAIEVEKPIVEVTDADVDGMLDTLRKQQATWKEKDGAVEAEDRVTIDFTGSVDGEEFEGGKASDFVLAMGQGRMIPGFEDGIKGHKAGEEFTIDVTFPEEYHAENLKGKAAKFAINLKKVEERELPELTAEFIKRFGVEDGSVEGLRAEVRKNMERELKSAIRNRVKSQAIEGLVKANDIDVPAALIDSEIDVLRRQAAQRFGGNEKQALELPRELFEEQAKRRVVVGLLLGEVIRTNELKADEERVKGLIEEMASAYEDPKEVIEFYSKNKELMDNMRNVALEEQAVEAVLAKAKVTEKETTFNELMNQQA [P0A850]”, for which the “total protein half-life in vivo” value is, setting by setting: under setting [1], 6.11 ± 0.15 h; under setting [2], 5.78 ± 0.82 h; under setting [3], 5.67 ± 0.022 h; under setting [9], 6 ± 0.012 h; under setting [12], 4.96 ± 0.061 h; under setting [10], 3.12 ± 0.18 h. Besides, the “total protein half-life in vivo” value was 5.738 ± 0.013 h under setting [4]; 10.4 ± 0.89 h under setting [11]; 5.35 ± 0.36 h under setting [5]; 9.03 ± 0.57 h under setting [6]; 5.01 ± 0.23 h under setting [7]; 9.5 ± 0.3 h under setting [8].

For the sequence “MIEQFFRPDSVEQALELKRRYQDEAVWFAGGSKLNATPTRTDKKIAISLQDLELDWVDWDNGALRIGAMSRLQPLRDARFIPAALREALGFVYSRHVRNQSTIGGEIAARQEESVLLPVLLALDAELVFGNGETLSIEDYLACPCDRLLTEIIIKDPYRTCATRKISRSQAGLTVVTAAVAMTDHDGMRIALDGVASKALRLHDVEKQNLEGNALEQAVANAIFPQEDLRGSVAYKRYITGVLVADLYADCQQAGEEAV”, under setting [9], the “total protein half-life in vivo” value came out at 0.974 h.

Take “MLKRYLVLSVATAAFSLPSLVNAAQQNILSVHILNQQTGKPAADVTVTLEKKADNGWLQLNTAKTDKDGRIKALWPEQTATTGDYRVVFKTGDYFKKQNLESFFPEIPVEFHINKVNEHYHVPLLLSQYGYSTYRGS”: the “total protein half-life in vivo” value under setting [1] stood at 5.28 ± 1.2 h; the “total protein half-life in vivo” value under setting [2] was determined as 5.47 ± 0.54 h; the “total protein half-life in vivo” value under setting [3] was determined as 5.53 h; the “total protein half-life in vivo” value under setting [9] amounted to 5.8 ± 0.16 h; the “total protein half-life in vivo” value under setting [10] is over 4 h; the “total protein half-life in vivo” value under setting [11] stood at 7.94 ± 2 h. Also, the “total protein half-life in vivo” value reads like this: under setting [5], 5.83 ± 0.21 h; under setting [6], 8.97 ± 0.37 h; under setting [7], 4.42 ± 0.68 h; under setting [8], 8.8 ± 0.6 h.

As to “MVTINTESALTPRSLRDTRRMNMFVSVAAAVAGLLFGLDIGVIAGALPFITDHFVLTSRLQEWVVSSMMLGAAIGALFNGWLSFRLGRKYSLMAGAILFVLGSIGSAFATSVEMLIAARVVLGIAVGIASYTAPLYLSEMASENVRGKMISMYQLMVTLGIVLAFLSDTAFSYSGNWRAMLGVLALPAVLLIILVVFLPNSPRWLAEKGRHIEAEEVLRMLRDTSEKAREELNEIRESLKLKQGGWALFKINRNVRRAVFLGMLLQAMQQFTGMNIIMYYAPRIFKMAGFTTTEQQMIATLVVGLTFMFATFIAVFTVDKAGRKPALKIGFSVMALGTLVLGYCLMQFDNGTASSGLSWLSVGMTMMCIAGYAMSAAPVVWILCSEIQPLKCRDFGITCSTTTNWVSNMIIGATFLTLLDSIGAAGTFWLYTALNIAFVGITFWLIPETKNVTLEHIERKLMAGEKLRNIGV [P0AE24]”, the “total protein half-life in vivo” value under setting [6] was 9.72 h.

Consider “MENKSARAKVQAFGGFLTAMVIPNIGAFIAWGFITALFIPTGWLPNEHFAKIVGPMITYLLPVMIGSTGGHLVGGKRGAVMGGIGTIGVIVGAEIPMFLGSMIMGPLGGLVIKYVDKALEKRIPAGFEMVINNFSLGIAGMLLCLLGFEVIGPAVLIANTFVKECIEALVHAGYLPLLSVINEPAKVLFLNNAIDQGVYYPLGMQQASVNGKSIFFMVASNPGPGLGLLLAFTLFGKGMSKRSAPGAMIIHFLGGIHELYFPYVLMKPLTIIAMIAGGMSGTWMFNLLDGGLVAGPSPGSIFAYLALTPKGSFLATIAGVTVGTLVSFAITSLILKMEKTVETESEDEFAQSANAVKAMKQEGAFSLSRVKRIAFVCDAGMGSSAMGATTFRKRLEKAGLAIEVKHYAIENVPADADIVVTHASLEGRVKRVTDKPLILINNYIGDPKLDTLFNQLTAEHKH”, for which the “total protein half-life in vivo” value by setting is: under setting [10], 2.08 h; under setting [4], 3.65 h; under setting [11], 8.89 h.

“MKTGSEFHVGIVGLGSMGMGAALSYVRAGLSTWGADLNSNACATLKEAGACGVSDNAATFAEKLDALLVLVVNAAQVKQVLFGETGVAQHLKPGTAVMVSSTIASADAQEIATALAGFDLEMLDAPVSGGAVKAANGEMTVMASGSDIAFERLAPVLEAVAGKVYRIGAEPGLGSTVKIIHQLLAGVHIAAGAEAMALAARAGIPLDVMYDVVTNAAGNSWMFENRMRHVVDGDYTPHSAVDIFVKDLGLVADTAKALHFPLPLASTALNMFTSASNAGYGKEDDSAVIKIFSGITLPGAKS”: the “total protein half-life in vivo” value under setting [1] is 5.94 h, the “total protein half-life in vivo” value under setting [10] worked out at 0.261 h, the “total protein half-life in vivo” value under setting [4] came to 0.509 h and the “total protein half-life in vivo” value under setting [11] is 1.69 ± 1.5 h.
